Data from article PMC3233575.

Columns and labels:
[1] = target: CHO-expressed soluble CD4 (UniProt P01730)
[2] = target: soluble recombinant DC-SIGN, entire extracellular domain (residues 70-404) (UniProt Q9NNX6); assay: acoustic biosensor (RapID4); soluble DC-SIGN amine-coupled, BSA on the control cell; purified or unpurified inactivated virus 34-250 nM (by p24, 2500 gag per virion); Langmuir kinetic model
[3] = target: HIV-1 IIIB gp140 (soluble, trimeric ectodomain of the envelope glycoprotein, residues 31-665) (HIV-1 strain IIIB (clade B, X4), molecular clone pBH10) (UniProt P03375); assay: SPR; gp140 immobilised by direct amine coupling on CM5 (560 RU BX08, 620 RU IIIB); fluid phase DC-SIGN 50-600 nM or Langerin 25-200 nM; HBS-P pH 7.4 with 10 mM CaCl2; heterogeneous analyte model (KD2 oligomer, KD1 monomer)
[4] = target: HIV-1 BX08 gp140 (soluble, trimeric ectodomain of the envelope glycoprotein, residues 31-663) (HIV-1 strain 92FR_BX08 (clade B, R5)); assay: as above
[5] = target: HIV-1 IIIB virus particles (envelope glycoprotein on virions) (HIV-1 strain IIIB (clade B)) (UniProt P03375)
[6] = target: HIV-1 BX08 gp140 (soluble, trimeric ectodomain of the envelope glycoprotein, residues 31-663) (HIV-1 strain 92FR_BX08 (clade B, R5))

Chain of soluble recombinant DC-SIGN, entire extracellular domain (residues 70-404) (from UniProt Q9NNX6-1 70-404) (domain or fragment) (Q9NNX6 70-404): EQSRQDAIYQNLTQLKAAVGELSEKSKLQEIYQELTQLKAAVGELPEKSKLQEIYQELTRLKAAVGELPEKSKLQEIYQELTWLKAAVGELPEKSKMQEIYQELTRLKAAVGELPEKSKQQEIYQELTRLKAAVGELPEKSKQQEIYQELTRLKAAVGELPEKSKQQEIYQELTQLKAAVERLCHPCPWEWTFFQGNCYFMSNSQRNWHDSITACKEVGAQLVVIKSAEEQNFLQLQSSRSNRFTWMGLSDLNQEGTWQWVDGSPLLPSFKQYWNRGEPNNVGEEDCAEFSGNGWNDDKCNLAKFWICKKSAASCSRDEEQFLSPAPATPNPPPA
Chain of soluble recombinant Langerin, full extracellular domain (residues 56-328) (Q9UJ71 56-328): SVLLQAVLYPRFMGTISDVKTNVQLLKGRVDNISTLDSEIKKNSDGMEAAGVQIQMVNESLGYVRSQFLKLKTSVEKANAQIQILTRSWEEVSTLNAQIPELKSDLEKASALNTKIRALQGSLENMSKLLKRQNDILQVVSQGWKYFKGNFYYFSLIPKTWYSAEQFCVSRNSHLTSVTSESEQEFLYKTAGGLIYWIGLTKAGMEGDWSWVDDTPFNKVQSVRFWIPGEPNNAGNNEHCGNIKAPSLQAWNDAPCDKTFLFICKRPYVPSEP
Chain of soluble recombinant DC-SIGN, entire extracellular domain (residues 70-404) (UniProt Q9NNX6) (Q9NNX6 70-404): as the sequence (Q9NNX6 70-404) above

HIV-1 BX08 gp140 (soluble, trimeric ectodomain of the envelope glycoprotein, residues 31-663) (domain or fragment)
maximum enhancement of p24 release from PM1 cells infected with HIV-1 BX08 pre-incubated with soluble DC-SIGN at <1 nM, against no treatment [1]: 3.6 fold

HIV-1 IIIB virus particles (envelope glycoprotein on virions) (from UniProt P03375 33-511; P03375 512-856) (complex)
Kd [2]: 0.096 µM | maximum enhancement of p24 release from PM1 cells infected with HIV-1 IIIB pre-incubated with soluble DC-SIGN at <1 nM, against no treatment [1]: 15.3 fold

HIV-1 IIIBx virus particles (envelope glycoprotein on virions), CD4-independent variant of IIIB (from UniProt P03375 33-511; P03375 512-856) (complex)
Kd [2]: 0.02 µM

soluble recombinant DC-SIGN, entire extracellular domain (residues 70-404) (from UniProt Q9NNX6-1 70-404) (domain or fragment)
KD2 (tetrameric form, heterogeneous analyte model) [3]: 0.063 µM | KD2 (tetrameric form, heterogeneous analyte model) [4]: 0.062 µM | IC50 of soluble DC-SIGN for inhibition of HIV-1 IIIB replication in PM1 cells (p24 release, 10 days); pair said to be blocked: envelope protein with CD4 [5]: 0.004 µM | IC50 of soluble DC-SIGN for inhibition of HIV-1 BX08 replication in PM1 cells (p24 release, 10 days); pair said to be blocked: envelope protein with CD4 [6]: 0.0025 µM

soluble recombinant Langerin, full extracellular domain (residues 56-328) (from UniProt Q9UJ71 56-328) (domain or fragment)
KD2 (trimeric form, heterogeneous analyte model) [3]: 0.011 µM | KD2 (trimeric form, heterogeneous analyte model) [4]: 0.024 µM
